Results on one substance are retold here after patent US20260209316A1.

Read-outs that look alike come from different tables or passages of the source.

Assay [1] addresses thermolysin-cleaved SUDV GP (GP(S)THL) (Sudan virus (SUDV)) (UniProt Q7T9D9). Kind of assay: BLI; Sudan GPTHL on sensor, NPC1-dC, then NPC1-dC (self-competition).
For assay [2] the target is unchanged. Described as above. This is another data set of the same source.

Niemann-Pick disease, type C1-domain C (NPC1-dC), sequence (O15118 373-620 limits assumed): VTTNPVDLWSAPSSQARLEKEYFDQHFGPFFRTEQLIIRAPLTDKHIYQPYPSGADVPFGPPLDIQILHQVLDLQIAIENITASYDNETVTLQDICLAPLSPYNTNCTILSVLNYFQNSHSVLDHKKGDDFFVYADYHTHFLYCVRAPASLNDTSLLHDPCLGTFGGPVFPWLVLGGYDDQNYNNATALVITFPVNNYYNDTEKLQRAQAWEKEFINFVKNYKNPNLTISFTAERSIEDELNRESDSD

For “Niemann-Pick disease, type C1-domain C (NPC1-dC) (from UniProt O15118 373-620) (receptor)”, the percent blocking of NPC1-dC binding in assay [1] was found to be 72%; in assay [2] it was 79%.
